Test system: K4 kissing-loop RNA reporter
Experiment: apparent KD of K4 kissing-loop reporter; higher = weaker reporter binding
Settings: Eterna round: R107
Protocol: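 RNA-MaP round R107: designed RNA switches with theophylline, tryptophan, arginine or FMN aptamers are transcribed on-chip within common flanks. They are titrated with a labelled K4 kissing-loop RNA reporter in RNA-MaP buffer (100 mM Tris pH 7.5, 80 mM KCl, 4 mM MgCl2), without ligand or with the indicated ligand. Median apparent KD per design.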

[1] = input ligand: theophylline 20 uM
[2] = input ligand: tryptophan 2.4 mM
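Also: bound reporter read as fluorescence of individual clusters on recovered sequencing chips by microscopy, with normalized cluster intensities fitted with a binding model.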

Sequence | apparent KD of K4 kissing-loop reporter (input ligand: FMN 200 uM) [nM] | apparent KD of K4 kissing-loop reporter (input ligand: arginine 13.2 mM) [nM] | apparent KD of K4 kissing-loop reporter (input ligand: none) [nM] | apparent KD of K4 kissing-loop reporter [1] [nM] | apparent KD of K4 kissing-loop reporter [2] [nM]
CAUAGACAAGUGAUGUUUGUCAUAACCGAAGGAGCGUCGUUGAAGACAGGUAGGUCGCGGAUUAAUUUAGAUUAUAUUCUUUUUA [JR_SSArginiA_Sub020] | 595 | 462 | 570 | 567 | 542
CCAGGAUGAUGAGGAUGAUGAAUUACUGAAGGAGCGCAUAUGGUUGCAGGUAGGUCGCGGUGAAUAAGUAUAGUGAUGUUAUGCC [SSArgA.X] | 530 | 407 | 594 | 448 | 427
CCAUCCGAGUCGGCCGCCACUUUGAGUGAUGUUUGGAGUCUGAGUCAACAUAAAUACUUAGUUUAAAGGACCGGGACUUCGGAUG [theeternabot_exclusion_KL_Trp_B_7] | 773 | 722 | 1020 | 1060 | 363
CCAUCGCUAUUCGAUACCAGCUAAAUAUAAUAUAACCAGUGAUGUUGGUAUAUAAAUAUAAGCCCUUGGCAGCGAAUAGUGAUGG [Theophylline B K4 30] | 139 | 107 | 113 | 103 | 109
CCAUCGCUAUUCGAUACCAGUCUACGUAGGAAACUACGUCUGCAAAGGAGUGAUGUUCCAGACCCUUGGCAGCGAAUAGUGAUGG [Theophylline B K4 5] | 969 | 689 | 792 | 589 | 900
CCAUUCUUUUACGAUACCAGUCUAAUAUAUUGAAUCAAAACCCUCGCCGAGUGAUGUUCGGACCCUUGGCAGCGUCUGCGAGAGG [xwxxtkmullin] | 629 | 542 | 602 | 549 | 498
CCCUCACGAGUGAUGUUCGUAGGGUACAGUCAGGAUAUCAUGCGGUUGAGAAGGGACAGAGAGGGCGGCGGCGGGUUGCUCAUCU [Isanausbe] | 197 | 217 | 325 | 266 | 215
CCGAGCUACAGCGAUACCAGUGUGGAGUGAUGUUCCCUGGUCCGGGCUGUUGUUCCCUUGCGCCCUUGGCAGCGCAGAAGCAGCU [Exclusion Theophylline B GF 14] | 303 | 316 | 367 | 267 | 396
CCGCUACCCUCAGGAUAUUAAAUAUUAGUGAUGUUAAUAAACCGAUGGCGAAAGCCAUCGGUAUGUUGAGAAGGGAGGGUAGCGG [whbob_SS_FMNB__2th196] | 145 | 593 | 766 | 549 | 635
CCGGCCCGGCCGGAUACCAGUGCGCCGCUGGGAACUGCGGGCCCAGAGUGAUGUUCGGGACACCCUUGGCAGCCGCCUGGGUCGC [#2 Same State - Theophylline B Attempt #25 (HarryS)] | 450 | 345 | 562 | 360 | 439
CCUAUCUCAUACGAUACCAGUCGUCGAGUGAUGUUCGAUUAAAUAUAUUUGCCAAAUAACGACCCUUGGCAGCGUAUGGGAUAGG [Ex Theophylline B K4 17] | 367 | 328 | 340 | 417 | 314
CCUAUCUCAUACGAUACCAGUGAAUAACCAGUGAUGUUGGAAUAACCAAGGAAUAUUUUACACCCUUGGCAGCGUAUGGGAUAGG [Ex Theophylline B K4 25] | 274 | 239 | 305 | 270 | 269
CCUUGAGAGUGAUGUUCUCGAGUGAAAGUCAAGGAUAUCCCGCGGUGGAGAAGGUGAUGGCGAACUUGACUGCUGUCAGUCCUAA [theeternabot_exclusion_KL_FMN_A_10] | 104 | 105 | 121 | 109 | 110
CGAGUCAAUUCAGAUACCAGCCAAUUAAAGUCGAGUGAUGUUCGACAAUGAACAUCCAAAGGCCCUUGGCAGCUGAAUUGGGAAC [Same State Theophylline B GF 18] | 144 | 87.3 | 114 | 228 | 83.4
CGAGUGAUGUUCGUUUAUUACUCUGUUUGACAGGAUAUGCGGAAACGCAGAAGGGUCACCUUUGAGUUAGACGGAGUUAUUUUUU [Ex FMN A 22] | 539 | 359 | 407 | 355 | 323
CGAUCUGAUAGCAGUGAUGUUGCUACAGAUACCAGUCCAGAUCGAGACCCUUGGCAGCUGACCCGGCAUGUGCUAUGGUAGAUCG [Theo A Ex t1] | 156 | 127 | 155 | 154 | 146

Sequence | apparent KD of K4 kissing-loop reporter (input ligand: FMN 200 uM) [nM] | apparent KD of K4 kissing-loop reporter (input ligand: arginine 13.2 mM) [nM] | apparent KD of K4 kissing-loop reporter (input ligand: none) [nM] | apparent KD of K4 kissing-loop reporter [1] [nM] | apparent KD of K4 kissing-loop reporter [2] [nM]
CGCAGUGAUGUUGCGAAUAUAAUAACGGAAGGAGCGCGUGAAAACGCAGGUAGGUCGCCGAUUGGUAUGAUGGAAACAUCGUACC [Arginine A K4 9] | 154 | 134 | 125 | 115 | 122
CGCGUAUCGGCAGGAUAUGGAGUUGAGUGAUGUUCAGCAAUGGGUCAUCAUCUUUAUGACAAUCCACCAGAAGGGCCGAUACGCG | 622 | 632 | 1100 | 944 | 812
CGGACGGUAUCGGCCGCCACUCUGAAGACAGUGAUGUUGUCCGUGCAGUAUUUAGGAAAGCCGCGGAGGACCGGGAUGCGUCACU [theeternabot_sameState_KL_Trp_B_48] | 374 | 150 | 232 | 253 | 340
CGGAUGUAGUGAUGUUAUAUUAGAUGUAGACGAGGACCGGUACGGCCGCCACUCGUGAUGGCUGCUAGCGCGUUGCGAGGUUUGC [ExTryptoA.Co] | 408 | 558 | 567 | 633 | 386
CGUGCCCGGCCGGAUACCAGUGACCCGCUGGGAACCGCGGGCCCAGAGUGAUGUUCGGGACACCCUUGGCAGCCGCCUGGGCGGC [#2 Same State - Theophylline B Attempt #13 (HarryS)] | 987 | 637 | 1080 | 614 | 655
CUAUGGAAACAUAGUGAUCGGGAAACCGAUACCAGUAUGGAAACAUACCCUUGGCAGCGGAAUGAUCUAACGGAGUGAUGUUCCG [Theophylline A K4 23] | 492 | 456 | 574 | 389 | 496
CUCUAACUGAGAAGGAGCGCGAUAUAAACACUCGCACAGUGAUGUUGUGUGUCAAGGGUAUCGCAGGUAGGUCGCUCAGAUACCU [Arg B SS t15] | 294 | 247 | 255 | 273 | 248
CUGAGCCUGACGUAAGUCAGGCUCUGCGAGCGAGGACCGGUACGGCCGCCACUCGGUGCAGUGAUGUUGCAUGGCCGCAAGGCCG [#2 Exclusion - Tryptophan A Attempt #19 (HarryS)] | 293 | 246 | 234 | 254 | 345
CUGGGUUGACGAAAAGUCAACAAAUGAGAAGGAGCGCACGAAAGUGCAGGUAGGUCGCUCAGUCCAGUGAUGUUGGAUCAUCCAG [#SwitchBubble 10 #K4Late] | 461 | 602 | 578 | 480 | 361
GAAACGUUGCGGACUAUCGCAUAAAGUCACCGAGGACCGGUACGGCCGCCACUCGCCAGUGAUGUUGGCGUGUUUGCGCGCUGUG [Titebebi] | 104 | 94 | 95.4 | 101 | 178
GAAAGGAGUGAUGUUCCUGAUAAUUUUAUGAAGGAUAUUCGAUGUGGAAGAAGGUCAUGCAGGCAGCAAGGUUGCGAUCAUAUCA [theeternabot_exclusion_KL_FMN_A_40] | 131 | 158 | 143 | 185 | 128
GAAUAAUAACAUGAGUGAUGUUCAUGUAAACGAGGACCGGUACGGCCGCCACUCGAACCUCAUGUAAGCCGUACCAAUAACAAUA [KL-XTryp-A4 #analogue] | 115 | 120 | 112 | 116 | 120
GACGGGUUCCUGCUCAAUCCGUCGCAUGAUCGAGGACCGGUACGGCCGCCACUCGAGGCCAUGCCGUACGAGUGAUGUUCGUGCG [Xeon] | 438 | 367 | 403 | 380 | 200
GAGGCCAGACGGAGUGAUGUUUCGUAUGAUACCAGCAGCGAAAGCUGCCCUUGGCAGCAUGCCACGGCCUCGGCGGGAAACCGCC | 372 | 319 | 397 | 446 | 384
GAGGUGGAGUGAUGUUCCACACUCGCUAGUAAGGAUAUGGCUGCUUCCAGAAGGUACCUAGAUUCAGUGUGCAUCAGUAACGUGC [theeternabot_exclusion_KL_FMN_A_4] | 95.2 | 96.3 | 106 | 105 | 96.3
GAUAUAGUGAUGUUAUAUACUGAUAGACAACGAGGACCGGUACGGCCGCCACUCGAGAGGGUGAAAAUAAUGAUAAAAUAAUAAU [ExyTryA#1] | 343 | 310 | 359 | 298 | 265

Reference: the supplement of paper PMC9170038
